According to patent publication US20210102933:

Experiments:
[1] = tested on: T1, FRET peptide substrate EDANS-A-L-E-V-L-F-Q/G-P-K-DABCYL
T1 sequence: ALEVLFXPK

Substance	fluorescent signal upon cleavage of the FRET peptide substrate in microwells (18 hours, 100 µg/mL peptide) [1]	fluorescent signal in trypsin cleavage assay in microwells (0.5 µg/ml trypsin, 10 µg/ml FTC-casein, 1 and 18 hours) (FTC-casein)	fluorescent signal in trypsin cleavage assay in microwells (0.05, 0.5 and 5 µg/ml trypsin, 10 µg/ml FTC-casein, 1 hour) (FTC-casein)
human rhinovirus 3C protease	The secreted enzyme successfully cleaved the substrate, resulting in a fluorescent signal	–	–
trypsin	–	the intensity of the observed fluorescent signal was dependent on the time of incubation	the intensity of the observed fluorescent signal was dependent on the concentration of trypsin in the microwells
